Series [1] concerns the target Alphaproteobacterial NrnC ortholog from Sphingomonas (Sphingomonas (genus only)). Description: mass photometry; protein at 100 nM in phosphate-buffered saline, TwoMP instrument.
For series [2], the target named is NrnC ortholog from Methylobacter (Methylobacter (genus only)). The experiment in a line: SEC-MALS; purified protein at 1 to 2 mg/ml (~40 to 80 uM) on Superdex 200 Increase 10/300 GL in gel-filtration buffer (25 mM Hepes-NaOH, 150 mM NaCl, pH 7.5; 500 mM NaCl for ancestor A0), room temperature.
Series [3] concerns the target NrnC ortholog from Thermosynechococcus (Thermosynechococcus (genus only)). The description is as above.
Series [4] deals with diDNase ortholog from Actinomadura (Actinomadura (genus only)). Described as above.
Series [5] deals with diDNase ortholog from Mycobacterium (Mycobacterium (genus only)). Description: […] (~40 to 80 uM) […], pH 7.5; […], room temperature.
The target in series [6] is diDNase ortholog from Nocardia (Nocardia (genus only)). Description: SEC-MALS; purified protein at 1 to 2 mg/ml (~40 to 80 uM) on Superdex 200 Increase 10/300 GL in gel-filtration buffer (25 mM Hepes-NaOH, 150 mM NaCl, pH 7.5; 500 mM NaCl for ancestor A0), room temperature. (In general: Size exclusion chromatography separates by hydrodynamic size, large species first.)
Series [7] concerns the molecule itself. Description: mass photometry; protein at 100 nM in phosphate-buffered saline, TwoMP instrument.

The source of these data is article PMC13464484, “Ancestral proteins trace the emergence of substrate specificity and oligomerization within bacterial DEDDy dinucleases” (Science Advances, 2026).

Turning to “Alphaproteobacterial NrnC ortholog from Sphingomonas (enzyme)”, in series [1], the percent dimers was greater than 85% and the stoichiometry N – broadly, the number of molecules, sites or subunits per partner or assembly – turned out to be 2.

Turning to “NrnC ortholog from Methylobacter (enzyme)”, the stoichiometry N in series [2] stood at 8.

In series [3], “NrnC ortholog from Thermosynechococcus (enzyme)” showed a stoichiometry N of 8.

For the molecule “diDNase ortholog from Actinomadura (enzyme)”, in series [4], the stoichiometry N came out at 2.

“diDNase ortholog from Mycobacterium (enzyme)” had a stoichiometry N in series [5] of 2.

In series [6], diDNase ortholog from Nocardia (enzyme) returned a stoichiometry N of 2.

B1: Alphaproteobacterial NrnC ortholog from Caulobacter (enzyme)
chain: MANFVHEGDLPDGVFADAEIIAIDSETMGLRLRRDPLCVVQLSAGDGDAHVVRLSRPDYDCPNLKALLTNPKVLKLFHFGRFDIAMFELHLGVVTAPVYCTKIASKLARTYTDRHGLKDVTRELLGVELSKVQQSSDWGAPSLSVDQVAYAASDVLHLHGLRLKLNAMLEREGRMALAQHAFDYLPHRASLDLAGWEEMDIFAHS
Consider B1, for which, in series [7], the “stoichiometry N” value was 2.
